Assay results published in US20220288216A1 (STARPHARMA, published 2022).

Legend:
[1] = biological target: T1, HER2 (human epidermal growth factor receptor 2) on cells (human, UniProt P04626 23-1255); test: flow cytometry (Cy5), MDA-MB-231/HER2 cells, 3.33 nM, 37 C, 24 h
T1 construct: whole, on cells; One molecule for HER2 on all HER2-positive human cell lines; also called ERBB2; HER2 WT

[2] = biological target: T1, HER2 (human epidermal growth factor …); test: flow cytometry (Cy5), SKOV-3 cells, 3.33 nM, 37 C, 24 h
[3] = biological target: T1, HER2 (human epidermal growth factor …); test: flow cytometry (Cy5), MDA-MB-231/HER2 cells, 0.5 h

Row | Binder | cellular association value (legend says percent; value exceeds 100, unit unclear) [3] | further results
1 | Nanobody-PEG2-TCO-MePhTz-PEG4-PEG24-CO[N(PN)2][Lys]8[(α-NH-Cy5)1(α-NH-Glu-VC-PAB-MMAE)7(ε-NH-COPEG1100)8], Compound 41 (VHH, C-terminal unnatural amino acid (# in the printed sequence; p-azido-phenylalanine) clicked to DBCO-PEG12-TCO and through it to the tetrazine G3 lysine dendrimer carrying Cy5, Glu-VC-PAB-MMAE and PEG1100, Anti-HER2 nanobody 2D3 conjugated to a G3 dendrimer; also called compound 41 (targeted); targeted dendrimer) VHH: EVQLVESGGSLVQPGGSLRLSCAASGFTFDDYAMSWVRQVPGKGLEWVSSINWSGTHTDYADSVKGRFTISRNNANNTLYLQMNSLKSEDTAVYYCAKNWRDAGTTWFEKSGSAGQGTQVTVSS | – | fold fluorescence against compound 36 (untargeted control) [1]: ~9 fold; fold fluorescence against compound 36 (untargeted control) [2]: ~16 fold
2 | BHA[Lys]32[((α-NH-COPEG24NH-COPEG4(PhMeTz) TCO-PEG3NH-COPEG24NH-Glu-DBCO/N3-Nanobody)1(α-Lys(α-NHCy5)(ε-NHDFO))1(α-NH2)30(ε-NH-COPEG1100)32], G5, Compound 92 (VHH, unnatural amino acid (#; p-azido-phenylalanine) clicked to DBCO-Glu-NHPEG24CO-NHPEG3-TCO and through it to the tetrazine G5 BHA-lysine dendrimer carrying Cy5, DFO and PEG, Single-nanobody G5 conjugate; also called BHA-G5-PEG1000 + NB) VHH: EVQLVESGGSLVQPGGSLRLSCAASGFTFDDYAMSWVRQVPGKGLEWVSSINWSGTHTDYADSVKGRFTISRNNANNTLYLQMNSLKSEDTAVYYCAKNWRDAGTTWFEKSGSAGQGTQVTVSS | 165 | –
3 | BHA[Lys]4[((α-NH-COPEG24NH-COPEG4(PhMeTz) TCO-PEG3NH-COPEG24NH-Glu-DBCO N3-Nanobody)1(α-Lys(α-NHCy5)(ε-NHDFO))1(α-NH2)2)(ε-NH-COPEG1000)4, G2, Compound 86 (VHH, unnatural amino acid (#; p-azido-phenylalanine) clicked to DBCO-Glu-NHPEG24CO-NHPEG3-TCO and through it to the tetrazine G2 BHA-lysine dendrimer carrying Cy5, DFO and PEG1000, Single-nanobody G2 conjugate; also called BHA-G2-PEG1000 + NB) VHH: EVQLVESGGSLVQPGGSLRLSCAASGFTFDDYAMSWVRQVPGKGLEWVSSINWSGTHTDYADSVKGRFTISRNNANNTLYLQMNSLKSEDTAVYYCAKNWRDAGTTWFEKSGSAGQGTQVTVSS | 190 | –
4 | BHA[Lys]8[((α-NH-COPEG24NH-COPEG4(PhMeTz) TCO-PEG3NH-COPEG24NH-Glu-DBCO/N3-Nanobody)1(α-Lys(α-NHCy5)(ε-NHDFO))1(α-NH2)6)(ε-NH-COPEG1000)8], G3, Compound 89 (VHH, unnatural amino acid (#; p-azido-phenylalanine) clicked to DBCO-Glu-NHPEG24CO-NHPEG3-TCO and through it to the tetrazine G3 BHA-lysine dendrimer carrying Cy5, DFO and PEG1000, Single-nanobody G3 conjugate; also called BHA-G3-PEG1000 + NB) VHH: EVQLVESGGSLVQPGGSLRLSCAASGFTFDDYAMSWVRQVPGKGLEWVSSINWSGTHTDYADSVKGRFTISRNNANNTLYLQMNSLKSEDTAVYYCAKNWRDAGTTWFEKSGSAGQGTQVTVSS | 218 | –
5 | BHA[Lys]16[((α-NH-COPEG24NH-COPEG4(PhMeTz) TCO-PEG3NH-COPEG24NH-Glu-DBCO/N3-Nanobody)1(α-Lys(α-NHCy5)(ε-NHDFO))1(α-NH2)14(ε-NH-COPEG1000)16], G4, Compound 90 (VHH, unnatural amino acid (#; p-azido-phenylalanine) clicked to DBCO-Glu-NHPEG24CO-NHPEG3-TCO and through it to the tetrazine G4 BHA-lysine dendrimer carrying Cy5, DFO and PEG1000, Single-nanobody G4 conjugate; also called single 2D3-dendrimer conjugate; MFI Single) VHH: EVQLVESGGSLVQPGGSLRLSCAASGFTFDDYAMSWVRQVPGKGLEWVSSINWSGTHTDYADSVKGRFTISRNNANNTLYLQMNSLKSEDTAVYYCAKNWRDAGTTWFEKSGSAGQGTQVTVSS | 157 | –
6 | BHA[Lys]32[((α-NH-COPEG24NH-COPEG4(PhMeTz) TCO-PEG3NH-COPEG24NH-Glu-DBCO/N3-Nanobody)1-4(α-NHCy5)1(α-NH-COPEG9-Val-Ala-PAB-P-Trigger-NMeCO-CTX)22) (α-NH2)5-8 … (VHH, unnatural amino acid (# in the printed sequence; p-azido-phenylalanine) after the last nanobody residue clicked to DBCO-Glu-NHPEG24CO-NHPEG3-TCO and through it to the tetrazine G5 BHA-lysine dendrimer carrying Cy5, cabazitaxel and PEG1100, 1-4 nanobodies per dendrimer as printed; also called compound 78 (targeted); 78 (2D3, G5, PEG1000, CTX)) VHH: EVQLVESGGSLVQPGGSLRLSCAASGFTFDDYAMSWVRQVPGKGLEWVSSINWSGTHTDYADSVKGRFTISRNNANNTLYLQMNSLKSEDTAVYYCAKNWRDAGTTWFEKSGSAGQGTQVTVSS | – | fold fluorescence against compound 70 (untargeted control) [1]: ~340 fold; fold fluorescence against compound 70 (untargeted control) [2]: ~160 fold
